Laboratory results taken from IntAct's records for PubMed 31552791.

B1: Ras-related protein Rab-38 (Homo sapiens), P57729 (parent)
chain: MQAPHKEHLYKLLVIGDLGVGKTSIIKRYVHQNFSSHYRATIGVDFALKVLHWDPETVVRLQLWDIAGQERFGNMTRVYYREAMGAFIVFDVTRPATFEAVAKWKNDLDSKLSLPNGKPVSVVLLANKCDQGKDVLMNNGLKMDQFCKEHGFVGWFETSAKENINIDEASRCLVKHILANECDLMESIEPDVVKPHLTSTKVASCSGCAKS

Variants of: B1
Details: with lrrk2_human LRRK2, Q5S007
lrrk2_human LRRK2, Q5S007, sequence (Q5S007 whole entry): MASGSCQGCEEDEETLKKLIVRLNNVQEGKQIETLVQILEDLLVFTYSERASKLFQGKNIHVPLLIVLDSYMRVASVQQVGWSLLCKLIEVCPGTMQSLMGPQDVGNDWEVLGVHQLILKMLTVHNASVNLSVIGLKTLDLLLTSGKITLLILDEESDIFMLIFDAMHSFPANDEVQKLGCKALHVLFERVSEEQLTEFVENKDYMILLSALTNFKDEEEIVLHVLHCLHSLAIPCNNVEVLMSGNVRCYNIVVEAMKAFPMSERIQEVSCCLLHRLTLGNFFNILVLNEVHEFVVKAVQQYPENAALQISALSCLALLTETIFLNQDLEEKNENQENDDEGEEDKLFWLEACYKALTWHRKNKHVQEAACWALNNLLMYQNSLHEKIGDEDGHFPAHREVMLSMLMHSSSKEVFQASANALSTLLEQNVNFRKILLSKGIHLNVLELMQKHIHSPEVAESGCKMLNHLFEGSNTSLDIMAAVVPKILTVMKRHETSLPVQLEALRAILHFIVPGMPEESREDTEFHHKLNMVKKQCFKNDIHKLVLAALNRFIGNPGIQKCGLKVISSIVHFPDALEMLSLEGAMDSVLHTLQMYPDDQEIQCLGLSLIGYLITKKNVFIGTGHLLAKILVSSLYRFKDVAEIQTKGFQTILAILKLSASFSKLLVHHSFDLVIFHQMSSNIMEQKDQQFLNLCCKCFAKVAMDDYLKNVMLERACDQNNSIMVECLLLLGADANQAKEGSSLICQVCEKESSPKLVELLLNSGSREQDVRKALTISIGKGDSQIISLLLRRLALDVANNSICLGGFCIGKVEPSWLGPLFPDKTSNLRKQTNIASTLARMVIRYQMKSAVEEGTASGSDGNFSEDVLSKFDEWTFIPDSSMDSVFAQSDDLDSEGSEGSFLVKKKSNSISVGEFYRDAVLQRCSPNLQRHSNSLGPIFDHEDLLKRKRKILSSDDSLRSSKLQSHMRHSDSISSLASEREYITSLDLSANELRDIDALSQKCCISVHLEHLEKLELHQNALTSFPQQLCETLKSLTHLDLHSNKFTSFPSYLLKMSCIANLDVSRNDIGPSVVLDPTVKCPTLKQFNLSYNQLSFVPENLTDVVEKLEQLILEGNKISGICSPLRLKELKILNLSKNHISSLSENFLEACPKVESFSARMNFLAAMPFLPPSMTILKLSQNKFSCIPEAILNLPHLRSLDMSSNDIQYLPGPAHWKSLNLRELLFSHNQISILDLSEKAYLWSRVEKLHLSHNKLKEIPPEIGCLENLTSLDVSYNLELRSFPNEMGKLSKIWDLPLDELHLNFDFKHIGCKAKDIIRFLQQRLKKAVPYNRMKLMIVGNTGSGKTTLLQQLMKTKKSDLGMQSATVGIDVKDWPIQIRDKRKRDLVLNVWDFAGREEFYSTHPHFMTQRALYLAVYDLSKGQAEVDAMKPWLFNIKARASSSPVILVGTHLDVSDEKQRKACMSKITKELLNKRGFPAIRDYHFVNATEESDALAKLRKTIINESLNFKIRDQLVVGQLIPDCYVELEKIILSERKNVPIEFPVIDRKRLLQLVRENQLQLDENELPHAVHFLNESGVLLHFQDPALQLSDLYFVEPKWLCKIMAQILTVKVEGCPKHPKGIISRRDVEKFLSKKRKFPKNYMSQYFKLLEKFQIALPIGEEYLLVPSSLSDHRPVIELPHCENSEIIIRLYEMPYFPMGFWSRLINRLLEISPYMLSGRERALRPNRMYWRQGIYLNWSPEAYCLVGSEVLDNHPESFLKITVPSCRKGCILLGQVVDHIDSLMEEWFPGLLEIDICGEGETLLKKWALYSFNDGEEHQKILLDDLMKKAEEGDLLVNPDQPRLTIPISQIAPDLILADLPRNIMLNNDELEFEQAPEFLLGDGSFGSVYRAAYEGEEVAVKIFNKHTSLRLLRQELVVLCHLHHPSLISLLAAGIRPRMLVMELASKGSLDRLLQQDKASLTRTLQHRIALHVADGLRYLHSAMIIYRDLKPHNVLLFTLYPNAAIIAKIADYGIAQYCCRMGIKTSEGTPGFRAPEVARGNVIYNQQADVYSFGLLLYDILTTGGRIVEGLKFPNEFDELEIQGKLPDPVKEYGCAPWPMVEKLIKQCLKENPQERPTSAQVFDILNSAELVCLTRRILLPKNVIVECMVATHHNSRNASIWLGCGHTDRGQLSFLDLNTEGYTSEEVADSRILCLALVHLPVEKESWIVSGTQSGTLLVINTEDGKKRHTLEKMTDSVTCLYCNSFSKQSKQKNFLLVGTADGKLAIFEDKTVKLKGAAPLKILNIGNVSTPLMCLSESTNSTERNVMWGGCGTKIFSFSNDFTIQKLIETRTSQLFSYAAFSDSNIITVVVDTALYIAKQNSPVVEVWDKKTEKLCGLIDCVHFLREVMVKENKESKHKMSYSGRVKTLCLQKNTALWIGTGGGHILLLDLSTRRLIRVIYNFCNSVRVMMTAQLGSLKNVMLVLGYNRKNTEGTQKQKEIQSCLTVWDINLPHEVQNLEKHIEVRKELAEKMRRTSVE

Row | Variant | effect of a mutation on the interaction
1 | R39Q | decreasing interaction strength
2 | I42A | with no effect

Results, then the variant that gave them:

Row | effect of a mutation on the interaction | Variant
3 | with no effect | I42E
4 | with no effect | R77Q;R81Q
